T1: WT-LP (wild-type large pocket fragment of RB, amino acids 379-928) (UniProt P06400 379-928)
T1 construct: range 379-928; Expressed by cotransfection in HEK 293 cells; Construct from Knudsen et al., 1996; also called Rb large pocket fragment
T1 sequence (looked up): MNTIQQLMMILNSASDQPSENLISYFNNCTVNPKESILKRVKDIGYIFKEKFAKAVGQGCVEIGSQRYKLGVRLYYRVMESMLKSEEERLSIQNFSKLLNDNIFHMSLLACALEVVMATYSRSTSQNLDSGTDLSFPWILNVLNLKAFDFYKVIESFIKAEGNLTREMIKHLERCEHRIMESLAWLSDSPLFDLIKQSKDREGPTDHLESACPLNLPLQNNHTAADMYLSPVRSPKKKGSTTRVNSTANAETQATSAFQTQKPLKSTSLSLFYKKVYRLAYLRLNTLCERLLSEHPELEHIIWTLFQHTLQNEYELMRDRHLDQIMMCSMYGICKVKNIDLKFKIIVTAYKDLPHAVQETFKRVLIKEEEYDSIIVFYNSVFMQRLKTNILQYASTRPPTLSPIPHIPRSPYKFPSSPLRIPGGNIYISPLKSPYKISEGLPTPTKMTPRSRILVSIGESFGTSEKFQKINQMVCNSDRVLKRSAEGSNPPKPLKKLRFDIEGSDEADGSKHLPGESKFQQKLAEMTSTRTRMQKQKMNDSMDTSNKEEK

T2: PSM2T-LP (double T821A/T826A large pocket mutant of RB) (UniProt P06400 379-928)
T2 construct: range 379-928; Expressed by cotransfection in HEK 293 cells
T2 sequence (looked up): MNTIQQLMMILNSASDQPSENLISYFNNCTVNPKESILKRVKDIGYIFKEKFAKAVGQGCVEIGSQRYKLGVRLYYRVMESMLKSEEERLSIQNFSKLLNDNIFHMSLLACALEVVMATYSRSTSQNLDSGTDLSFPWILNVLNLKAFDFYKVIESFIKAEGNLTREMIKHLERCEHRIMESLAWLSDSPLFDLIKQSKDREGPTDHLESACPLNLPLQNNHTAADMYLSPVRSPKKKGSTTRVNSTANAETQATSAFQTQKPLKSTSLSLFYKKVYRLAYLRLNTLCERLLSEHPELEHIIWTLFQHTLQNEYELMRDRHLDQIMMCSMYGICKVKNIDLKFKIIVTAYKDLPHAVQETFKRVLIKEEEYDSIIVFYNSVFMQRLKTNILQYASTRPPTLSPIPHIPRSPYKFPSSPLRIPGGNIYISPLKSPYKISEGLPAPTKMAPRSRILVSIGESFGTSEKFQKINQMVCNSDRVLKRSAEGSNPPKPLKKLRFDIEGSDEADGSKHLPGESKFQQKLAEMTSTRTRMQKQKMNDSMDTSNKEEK

T3: Retinoblastoma protein (Rb), endogenous in the cells used (UniProt P06400 2-928)
T3 construct: also called endogenous Rb; total Rb
T3 sequence (looked up): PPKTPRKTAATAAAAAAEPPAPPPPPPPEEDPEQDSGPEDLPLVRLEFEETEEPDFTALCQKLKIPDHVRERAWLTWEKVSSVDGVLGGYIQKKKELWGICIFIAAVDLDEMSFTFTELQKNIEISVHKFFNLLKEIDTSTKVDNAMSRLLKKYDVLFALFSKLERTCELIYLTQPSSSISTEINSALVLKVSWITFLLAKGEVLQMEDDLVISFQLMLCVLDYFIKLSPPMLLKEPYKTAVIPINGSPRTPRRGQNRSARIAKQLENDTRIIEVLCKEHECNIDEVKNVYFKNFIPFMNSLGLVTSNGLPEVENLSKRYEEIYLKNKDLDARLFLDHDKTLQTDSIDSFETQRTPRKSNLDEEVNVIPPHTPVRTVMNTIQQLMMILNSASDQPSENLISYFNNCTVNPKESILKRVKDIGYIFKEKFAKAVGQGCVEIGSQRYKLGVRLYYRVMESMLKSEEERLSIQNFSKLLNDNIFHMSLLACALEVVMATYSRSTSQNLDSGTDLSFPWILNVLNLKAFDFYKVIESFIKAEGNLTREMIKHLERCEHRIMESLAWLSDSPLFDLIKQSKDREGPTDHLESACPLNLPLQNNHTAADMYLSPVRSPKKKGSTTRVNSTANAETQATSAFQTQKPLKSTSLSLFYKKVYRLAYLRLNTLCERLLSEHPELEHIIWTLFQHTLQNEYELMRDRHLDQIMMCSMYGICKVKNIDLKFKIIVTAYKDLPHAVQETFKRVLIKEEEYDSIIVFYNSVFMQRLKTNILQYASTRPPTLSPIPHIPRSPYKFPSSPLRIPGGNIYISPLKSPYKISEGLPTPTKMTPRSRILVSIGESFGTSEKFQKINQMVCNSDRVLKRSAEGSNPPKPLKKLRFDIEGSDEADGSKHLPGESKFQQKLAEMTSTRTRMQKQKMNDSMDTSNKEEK

B1: V5-epitope tagged pp32 (pp32V5) (other, not shown: small tags and cut ends)
chain: MEMGRRIHLELRNRTPSDVKELVLDNSRSNEGKLEGLTDEFEELEFLSTINVGLTSIANLPKLNKLKKLELSDNRVSGGLEVLAEKCPNLTHLNLSGNKIKDLSTIEPLKKLENLKSLDLFNCEVTNLNDYRENVFKLLPQLTYLDGYDRDDKEAPDSDAEGYVEGLDDEEEDEDEEEYDEDAQVVEDEEDEDEEEEGEEEDVSGEEEEDEEGYNDGEVDDEEDEEELGEEERGQKRKREPEDEGEDDD
notes: Expressed by transient transfection in HEK 293 (or NIH 3T3) cells and tested in cell extracts; also called V5-tagged pp32
B2: pp32Δ201-360V5 (other, not shown: small tags and cut ends)
chain: MEMGRRIHLELRNRTPSDVKELVLDNSRSNEGKLEGLTDEFEELEFLSTINVGLTSIANLPKLNKLFNCEVTNLNDYRENVFKLLPQLTYLDGYDRDDKEAPDSDAEGYVEGLDDEEEDEDEEEYDEDAQVVEDEEDEDEEEEGEEEDVSGEEEEDEEGYNDGEVDDEEDEEELGEEERGQKRKREPEDEGEDDD
notes: also called pp32D201-360V5
B3: pp32r1V5 (V5-epitope tagged pp32r1, ANP32C) (other, UniProt O43423 1-234, looked up, not shown: small tags and cut ends)
chain: MEMGRRIHSELRNRAPSDVKELALDNSRSNEGKLEALTDEFEELEFLSKINGGLTSISDLPKLKLRKLELRVSGGLEVLAEKCPNLTHLYLSGNKIKDLSTIEPLKQLENLKSLDLFNCEVTNLNDYGENVFKLLLQLTYLDSCYWDHKEAPYSDIEDHVEGLDDEEEGEHEEEYDEDAQVVEDEEGEEEEEEGEEEDVSGGDEEDEEGYNDGEVDGEEDEEELGEEERGQKRK
notes: Overexpressed in HEK 293 cells
B4: pp32r2V5 (V5-epitope tagged pp32r2, ANP32D) (other, UniProt O95626 1-131, looked up, not shown: small tags and cut ends)
chain: MEMGKWIHLELRNRTPSDVKELFLDNSQSNEGKLEGLTDEFEELELLNTINIGLTSIANLPKLNKLKKLELSSNRASVGLEVLAEKCPNLIHLNLSGNKIKDLSTIEPLKKLENLESLDLFTCEVTNLNNY
notes: as for B3

Legend:
[1] = biological target: T1, WT-LP (wild-type large pocket fragment …); assay: cotransfection in HEK 293, IP with anti-V5, western with anti-Rb (851)
Source text: (§1) Equal amounts of cell extracts were precipitated with anti-V5 antibody. Upper panel, the presence of WT-LP or PSM2T-LP in immunoprecipitates was probed by western blot analysis using anti-Rb antibody (851). The right-hand arrow indicates the position of the Rb large pocket fragment. The lower band present in all three lanes is immunoglobulin heavy chain, which serves as a loading control. Middle panel, anti-V5 immunoprecipitates were subjected to western blot analysis with anti-V5 antibody to confirm pp32V5 immunoprecipitation. Lower panel, cell extracts were subjected to western blotting with anti-Rb antibody (851) to confirm expression of WT-LP and PSM2T-LP.
(§2) Immunoprecipitation and Immunoblotting-1×10⁶ HEK 293 cells were seeded onto a T-150 flask. 24 hours later, cells were transfected with 15 μg of the indicated plasmids. 48 hrs post transfection, cells were harvested, washed twice with cold PBS, and lysed with MPER (Pierce) containing 1× protease inhibitor cocktail (HALT, Pierce). Lysates were centrifuged at 4° C. for 30 minutes at 16,000 g to remove particulate material. The supernatant was precleared for 2 hours with protein A-agarose (Roche). The pre-cleared cell lysates were mixed with the indicated antibodies and protein A- or protein G-agarose (Roche) and incubated at 4° C. overnight. […] The eluted materials were subsequently analyzed by immunoblotting with the indicated antibodies. […]

[2] = biological target: T2, PSM2T-LP (double T821A/T826A large …); assay: as above
Source text: as §1, §2

[3] = biological target: T3, Retinoblastoma protein (Rb), endogenous …; assay: IP with anti-Rb (G99-2005) from transfected HEK 293 extracts, anti-V5 western
Procedure: Immunoprecipitation and Immunoblotting-1×10⁶ HEK 293 cells were seeded onto a T-150 flask. 24 hours later, cells were transfected with 15 μg of the indicated plasmids. 48 hrs post transfection, cells were harvested, washed twice with cold PBS, and lysed with MPER (Pierce) containing 1× protease inhibitor cocktail (HALT, Pierce). Lysates were centrifuged at 4° C. for 30 minutes at 16,000 g to remove particulate material. The supernatant was precleared for 2 hours with protein A-agarose (Roche). The pre-cleared cell lysates were mixed with the indicated antibodies and protein A- or protein G-agarose (Roche) and incubated at 4° C. overnight. The next day, the reaction mixture was washed three times with cold PBS, boiled for 3 minutes and eluted in 2×SDS buffer. The eluted materials were subsequently analyzed by immunoblotting with the indicated antibodies.
While pp32 inhibits transformation, pp32r1 (ANP32C) and pp32r2 (ANP32D), both highly homologous to pp32 at the protein level (87.7% and 89.3% respectively) are tumorigenic (Kadkol, S. S., Brody, J. R., Pevsner, J., Bai, J., and Pasternack, G. R. (1999) Nature Med. 5, 275-279). Therefore, the possibility of an interaction between these family members and Rb was explored. pp32r1 and r2 were V5-epitope tagged and overexpressed in HEK 293 cells. HEK 293 cells were transfected with pp32V5, pp32r1V5, pp32r2V5 or LacZV5 expression vectors as indicated. Equal amounts of cell extracts were precipitated with anti-Rb (G99-2005) antibody and analysed by western blotting with anti-V5 antibody. Equal amounts of cell lysates were immunoprecipitated with anti-Rb and immunoblotted with anti-V5.

Binder	binding result [1]	binding result [2]	binding result [3]
B1	binds	no binding	–
B2	–	–	no binding
B3	–	–	no binding
B4	–	–	no binding
